{
  "source": "patent US6528633",
  "key": {"[1]": {"molecular_target": "clam E3-C/cyclosome complex, activated, partially purified"}, "[2]": {"molecular_target": "non-specific ubiquitin-protein ligase (E3) from clam oocyte Fraction 1A"}},
  "data": [
    {"protein": "recombinant clam E2-C, bacterially expressed (protein) MSGQNIDPAANQVRQKERPRDMTTSKERHSVSKRLQQELRTLLMSGDPGITAFPDGDNLFKWVATLDGPKDTVYESLKYKLTLEFPSDYPYKPPVVKFTTPCWHPNVDQSGNICLDILKENWTASYDVRTILLSLQSLLGEPNNASPLNAQAADMWSNQTEYKKVLHEKYKTAQSKDK", "values": [
      {"measurement": "half-maximal activation of cyclin ubiquitination", "setting": "[1]", "result": "half-maximal activation was obtained with 0.05 µM recombinant E2"},
      {"measurement": "formation of ubiquitin-protein conjugates", "setting": "[2]", "result": "the recombinant clam E2 had no significant influence on the formation of ubiquitin-protein conjugates by the non-specific E3"}
    ]}
  ]
}
